# According to publication PMC9482650, “Quantitative fragmentomics allow affinity mapping of interactomes” (Nature Communications, 2022):
# Where a chain is given by its changes, count along the chain named.
# T1: FRMPD1, Q5SYB0
# T1 sequence (Q5SYB0 52-145, limits assumed, looked up): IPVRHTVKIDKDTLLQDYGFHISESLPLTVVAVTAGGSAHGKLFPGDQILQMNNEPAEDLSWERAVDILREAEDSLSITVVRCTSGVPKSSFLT
# T2: LIN7C, Q9NUP9
# T2 sequence (Q9NUP9 88-185, limits assumed, looked up): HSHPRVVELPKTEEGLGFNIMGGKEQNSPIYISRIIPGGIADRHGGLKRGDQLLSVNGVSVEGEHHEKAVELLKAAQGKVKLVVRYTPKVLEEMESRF
# T3: MPP2, Q14168
# T3 sequence (Q14168 180-250, limits assumed, looked up): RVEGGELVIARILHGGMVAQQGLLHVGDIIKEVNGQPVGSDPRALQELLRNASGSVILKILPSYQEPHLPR
# T4: LIN7B, Q9HAP6
# T4 sequence (Q9HAP6 88-185, limits assumed, looked up): T2 sequence (Q9NUP9 88-185, limits assumed, looked up) with S2A, E13D, I35V, I40V, H65Q, K79S, K89R, S96A
# T5: GRIP1_4, Q9Y3R0
# T5 sequence (Q9Y3R0 467-571, limits assumed, looked up): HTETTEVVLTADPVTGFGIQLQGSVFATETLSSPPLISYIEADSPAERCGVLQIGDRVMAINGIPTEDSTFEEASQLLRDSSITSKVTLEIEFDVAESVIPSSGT
# T6: PDZD2_2, O15018
# T6 sequence (O15018 329-429, limits assumed, looked up): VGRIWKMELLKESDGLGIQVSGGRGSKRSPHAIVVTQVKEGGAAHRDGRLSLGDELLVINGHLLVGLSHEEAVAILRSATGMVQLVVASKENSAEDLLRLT
# T7: APBA3_1, O96018
# T7 sequence (O96018 389-490, limits assumed, looked up): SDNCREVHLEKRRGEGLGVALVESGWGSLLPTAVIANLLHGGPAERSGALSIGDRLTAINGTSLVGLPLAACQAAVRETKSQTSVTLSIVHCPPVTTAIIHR
# T8: PDZD7_3, Q9H5P4
# T8 sequence (Q9H5P4 857-944, limits assumed, looked up): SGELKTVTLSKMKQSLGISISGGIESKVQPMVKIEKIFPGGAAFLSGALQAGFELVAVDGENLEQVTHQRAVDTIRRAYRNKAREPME
# T9: LNX2_3, Q8N448
# T9 sequence (Q8N448 463-564, limits assumed, looked up): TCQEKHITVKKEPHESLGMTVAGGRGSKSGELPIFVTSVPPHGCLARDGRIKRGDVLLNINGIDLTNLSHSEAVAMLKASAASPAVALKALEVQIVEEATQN
# T10: HTRA4, P83105
# T10 sequence (P83105 378-476, limits assumed, looked up): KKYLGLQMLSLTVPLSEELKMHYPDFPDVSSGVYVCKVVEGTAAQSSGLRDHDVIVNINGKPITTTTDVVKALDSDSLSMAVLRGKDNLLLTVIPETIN
# T11: DVL3, Q92997
# T11 sequence (Q92997 244-331, limits assumed, looked up): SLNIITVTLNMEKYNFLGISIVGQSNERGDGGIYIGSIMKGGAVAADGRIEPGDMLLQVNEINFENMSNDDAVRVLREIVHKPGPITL
# B1: PRKD2, Q9BZL6 (peptide)
# chain: QGLAERISVL
# B2: NLGN2, Q8NFZ4 (peptide)
# chain: LPHPHSTTRV
# B3: CCDC134, Q9H6E4 (peptide)
# chain: PRISRSQSEL
# Target: T1, FRMPD1, Q5SYB0
# Assay: holdup assay
# Set-up: key: below the threshold = too weak to quantify, mostly under pKd 3.1 to 4
# Conditions: plain residues with an end cap or a label only (N-terminal biotin on a linker: ado-ado)
row,Binder,pKd
1,B1,below the threshold
2,B2,below the threshold
3,B3,below the threshold

# Target: IL16_4, Q14005
# Assay: holdup assay
# Set-up: key: below the threshold = too weak to quantify, mostly under pKd 3.1 to 4
# Conditions: plain residues with an end cap or a label only (N-terminal biotin on a linker: ado-ado)
# Chain of IL16_4, Q14005 (Q14005 1229-1329): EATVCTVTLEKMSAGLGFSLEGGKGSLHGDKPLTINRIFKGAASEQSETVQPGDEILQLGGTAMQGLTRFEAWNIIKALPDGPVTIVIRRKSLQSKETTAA
row,Binder,pKd
1,B1,3.71
2,B2,3.7
3,B3,3.8

# Target: T2, LIN7C, Q9NUP9
# Assay: holdup assay
# Set-up: key: below the threshold = too weak to quantify, mostly under pKd 3.1 to 4
# Conditions: plain residues with an end cap or a label only (N-terminal biotin on a linker: ado-ado)
row,Binder,pKd
1,B1,4.12
2,B2,below the threshold
3,B3,below the threshold

# Target: T3, MPP2, Q14168
# Assay: holdup assay
# Set-up: key: below the threshold = too weak to quantify, mostly under pKd 3.1 to 4
# Conditions: plain residues with an end cap or a label only (N-terminal biotin on a linker: ado-ado)
row,Binder,pKd
1,B1,below the threshold
2,B2,below the threshold
3,B3,below the threshold

# Target: Inadl_8, Q8NI35
# Assay: holdup assay
# Set-up: key: below the threshold = too weak to quantify, mostly under pKd 3.1 to 4
# Conditions: plain residues with an end cap or a label only (N-terminal biotin on a linker: ado-ado)
# Chain of Inadl_8, Q8NI35 (Q8NI35 1425-1530): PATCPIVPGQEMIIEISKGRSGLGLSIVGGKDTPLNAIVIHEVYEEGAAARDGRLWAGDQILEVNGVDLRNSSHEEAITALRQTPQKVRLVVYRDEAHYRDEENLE
row,Binder,pKd
1,B1,3.8
2,B2,4.39
3,B3,below the threshold

# Target: T4, LIN7B, Q9HAP6
# Assay: holdup assay
# Set-up: key: below the threshold = too weak to quantify, mostly under pKd 3.1 to 4
# Conditions: plain residues with an end cap or a label only (N-terminal biotin on a linker: ado-ado)
row,Binder,pKd
1,B1,below the threshold
2,B2,3.58
3,B3,3.62

# Target: T5, GRIP1_4, Q9Y3R0
# Assay: holdup assay
# Set-up: key: below the threshold = too weak to quantify, mostly under pKd 3.1 to 4
# Conditions: plain residues with an end cap or a label only (N-terminal biotin on a linker: ado-ado)
row,Binder,pKd
1,B1,below the threshold
2,B2,below the threshold
3,B3,below the threshold

# Target: Inadl_9, Q8NI35
# Assay: holdup assay
# Set-up: key: below the threshold = too weak to quantify, mostly under pKd 3.1 to 4
# Conditions: plain residues with an end cap or a label only (N-terminal biotin on a linker: ado-ado)
# Chain of Inadl_9, Q8NI35 (Q8NI35 1530-1615): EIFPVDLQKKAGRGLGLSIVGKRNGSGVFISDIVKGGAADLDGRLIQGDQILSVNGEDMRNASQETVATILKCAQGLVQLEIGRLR
row,Binder,pKd
1,B1,below the threshold
2,B2,below the threshold
3,B3,below the threshold

# Target: MAGI2_5, Q86UL8
# Assay: holdup assay
# Set-up: key: below the threshold = too weak to quantify, mostly under pKd 3.1 to 4
# Conditions: plain residues with an end cap or a label only (N-terminal biotin on a linker: ado-ado)
# Chain of MAGI2_5, Q86UL8 (Q86UL8 915-1017): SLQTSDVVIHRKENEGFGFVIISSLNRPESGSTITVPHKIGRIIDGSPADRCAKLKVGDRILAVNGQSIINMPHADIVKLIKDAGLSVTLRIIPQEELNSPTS
row,Binder,pKd
1,B1,4.13
2,B2,below the threshold
3,B3,below the threshold

# Target: MAST2, Q6P0Q8
# Assay: holdup assay
# Set-up: key: below the threshold = too weak to quantify, mostly under pKd 3.1 to 4
# Conditions: plain residues with an end cap or a label only (N-terminal biotin on a linker: ado-ado)
# Chain of MAST2, Q6P0Q8 (Q6P0Q8 1099-1202): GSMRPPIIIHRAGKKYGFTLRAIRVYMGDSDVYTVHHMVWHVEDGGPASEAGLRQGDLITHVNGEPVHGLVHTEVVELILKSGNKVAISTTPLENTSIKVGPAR
row,Binder,pKd
1,B1,5.53
2,B2,5.19
3,B3,5.76

# Target: NHERF4_4, Q86UT5
# Assay: holdup assay
# Set-up: key: below the threshold = too weak to quantify, mostly under pKd 3.1 to 4
# Conditions: plain residues with an end cap or a label only (N-terminal biotin on a linker: ado-ado)
# Chain of NHERF4_4, Q86UT5 (Q86UT5 464-550): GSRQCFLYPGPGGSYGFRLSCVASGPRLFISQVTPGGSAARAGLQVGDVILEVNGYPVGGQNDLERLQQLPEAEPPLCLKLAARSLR
row,Binder,pKd
1,B1,3.97
2,B2,below the threshold
3,B3,below the threshold

# Target: T6, PDZD2_2, O15018
# Assay: holdup assay
# Set-up: key: below the threshold = too weak to quantify, mostly under pKd 3.1 to 4
# Conditions: plain residues with an end cap or a label only (N-terminal biotin on a linker: ado-ado)
row,Binder,pKd
1,B1,4.32
2,B2,below the threshold
3,B3,3.66

# Target: DLG4_1, P78352
# Assay: holdup assay
# Set-up: key: below the threshold = too weak to quantify, mostly under pKd 3.1 to 4
# Conditions: plain residues with an end cap or a label only (N-terminal biotin on a linker: ado-ado)
# Chain of DLG4_1, P78352 (P78352 62-152): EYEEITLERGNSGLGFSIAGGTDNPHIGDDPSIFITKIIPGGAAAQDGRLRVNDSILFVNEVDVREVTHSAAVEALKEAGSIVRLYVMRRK
row,Binder,pKd
1,B1,below the threshold
2,B2,below the threshold
3,B3,below the threshold

# Target: LNX1_3, Q8TBB1
# Assay: holdup assay
# Set-up: key: below the threshold = too weak to quantify, mostly under pKd 3.1 to 4
# Conditions: plain residues with an end cap or a label only (N-terminal biotin on a linker: ado-ado)
# Chain of LNX1_3, Q8TBB1 (Q8TBB1 500-596): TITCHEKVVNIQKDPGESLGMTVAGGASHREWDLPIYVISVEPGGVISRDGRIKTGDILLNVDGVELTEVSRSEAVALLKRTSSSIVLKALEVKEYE
row,Binder,pKd
1,B1,below the threshold
2,B2,below the threshold
3,B3,below the threshold

# Target: FRMPD2_1, Q68DX3
# Assay: holdup assay
# Set-up: key: below the threshold = too weak to quantify, mostly under pKd 3.1 to 4
# Conditions: plain residues with an end cap or a label only (N-terminal biotin on a linker: ado-ado)
# Chain of FRMPD2_1, Q68DX3 (Q68DX3 770-861): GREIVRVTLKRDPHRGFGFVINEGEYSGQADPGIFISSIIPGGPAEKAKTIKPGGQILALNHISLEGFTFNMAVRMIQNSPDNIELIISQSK
row,Binder,pKd
1,B1,below the threshold
2,B2,below the threshold
3,B3,below the threshold

# Target: T7, APBA3_1, O96018
# Assay: holdup assay
# Set-up: key: below the threshold = too weak to quantify, mostly under pKd 3.1 to 4
# Conditions: plain residues with an end cap or a label only (N-terminal biotin on a linker: ado-ado)
row,Binder,pKd
1,B1,below the threshold
2,B2,below the threshold
3,B3,below the threshold

# Target: Inadl_6, Q8NI35
# Assay: holdup assay
# Set-up: key: below the threshold = too weak to quantify, mostly under pKd 3.1 to 4
# Conditions: plain residues with an end cap or a label only (N-terminal biotin on a linker: ado-ado)
# Chain of Inadl_6, Q8NI35 (Q8NI35 1058-1167): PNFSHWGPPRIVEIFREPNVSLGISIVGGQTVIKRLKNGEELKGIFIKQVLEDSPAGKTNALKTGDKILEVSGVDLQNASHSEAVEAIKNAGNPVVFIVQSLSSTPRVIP
row,Binder,pKd
1,B1,4.02
2,B2,below the threshold
3,B3,below the threshold

# Target: T8, PDZD7_3, Q9H5P4
# Assay: holdup assay
# Set-up: key: below the threshold = too weak to quantify, mostly under pKd 3.1 to 4
# Conditions: plain residues with an end cap or a label only (N-terminal biotin on a linker: ado-ado)
row,Binder,pKd
1,B1,5.21
2,B2,4.26
3,B3,below the threshold

# Target: Inadl_3, Q8NI35
# Assay: holdup assay
# Set-up: key: below the threshold = too weak to quantify, mostly under pKd 3.1 to 4
# Conditions: plain residues with an end cap or a label only (N-terminal biotin on a linker: ado-ado)
# Chain of Inadl_3, Q8NI35 (Q8NI35 359-469): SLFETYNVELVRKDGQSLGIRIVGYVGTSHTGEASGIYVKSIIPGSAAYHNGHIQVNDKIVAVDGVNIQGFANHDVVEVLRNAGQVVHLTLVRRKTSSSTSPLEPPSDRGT
row,Binder,pKd
1,B1,3.64
2,B2,below the threshold
3,B3,below the threshold

# Target: T9, LNX2_3, Q8N448
# Assay: holdup assay
# Set-up: key: below the threshold = too weak to quantify, mostly under pKd 3.1 to 4
# Conditions: plain residues with an end cap or a label only (N-terminal biotin on a linker: ado-ado)
row,Binder,pKd
1,B1,below the threshold
2,B2,below the threshold
3,B3,below the threshold

# Target: T10, HTRA4, P83105
# Assay: holdup assay
# Set-up: key: below the threshold = too weak to quantify, mostly under pKd 3.1 to 4
# Conditions: plain residues with an end cap or a label only (N-terminal biotin on a linker: ado-ado)
row,Binder,pKd
1,B1,4.06
2,B2,3.97
3,B3,below the threshold

# Target: T11, DVL3, Q92997
# Assay: holdup assay
# Set-up: key: below the threshold = too weak to quantify, mostly under pKd 3.1 to 4
# Conditions: plain residues with an end cap or a label only (N-terminal biotin on a linker: ado-ado)
row,Binder,pKd
1,B1,below the threshold
2,B2,below the threshold
3,B3,below the threshold

# Target: NHERF4_1, Q86UT5-2
# Assay: holdup assay
# Set-up: key: below the threshold = too weak to quantify, mostly under pKd 3.1 to 4
# Conditions: plain residues with an end cap or a label only (N-terminal biotin on a linker: ado-ado)
# Chain of NHERF4_1, Q86UT5-2 (Q86UT5 other isoform, or with tags, fused parts or gaps): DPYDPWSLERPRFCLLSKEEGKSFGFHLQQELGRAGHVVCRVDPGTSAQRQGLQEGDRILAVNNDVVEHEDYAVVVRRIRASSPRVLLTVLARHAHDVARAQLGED
row,Binder,pKd
1,B1,4.27
2,B2,below the threshold
3,B3,3.86

# Target: ARHGEF12, Q9NZN5-2
# Assay: holdup assay
# Set-up: key: below the threshold = too weak to quantify, mostly under pKd 3.1 to 4
# Conditions: plain residues with an end cap or a label only (N-terminal biotin on a linker: ado-ado)
# Chain of ARHGEF12, Q9NZN5-2 (Q9NZN5 other isoform, or with tags, fused parts or gaps): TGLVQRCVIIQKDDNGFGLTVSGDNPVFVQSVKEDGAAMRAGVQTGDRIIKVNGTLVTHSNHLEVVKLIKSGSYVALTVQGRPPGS
row,Binder,pKd
1,B1,5.06
2,B2,3.84
3,B3,4.27

# Target: Inadl_1, Q8NI35
# Assay: holdup assay
# Set-up: key: below the threshold = too weak to quantify, mostly under pKd 3.1 to 4
# Conditions: plain residues with an end cap or a label only (N-terminal biotin on a linker: ado-ado)
# Chain of Inadl_1, Q8NI35 (Q8NI35 113-229): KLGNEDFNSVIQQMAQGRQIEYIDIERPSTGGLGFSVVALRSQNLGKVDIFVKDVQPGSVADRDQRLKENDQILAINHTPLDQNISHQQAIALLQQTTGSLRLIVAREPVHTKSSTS
row,Binder,pKd
1,B1,below the threshold
2,B2,below the threshold
3,B3,below the threshold

# Target: GRID2IP_1, A4D2P6
# Assay: holdup assay
# Set-up: key: below the threshold = too weak to quantify, mostly under pKd 3.1 to 4
# Conditions: plain residues with an end cap or a label only (N-terminal biotin on a linker: ado-ado)
# Chain of GRID2IP_1, A4D2P6 (A4D2P6 1-87): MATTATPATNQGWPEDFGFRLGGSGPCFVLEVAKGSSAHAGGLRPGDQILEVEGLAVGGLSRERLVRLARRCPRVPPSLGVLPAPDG
row,Binder,pKd
1,B1,below the threshold
2,B2,below the threshold
3,B3,below the threshold
